Results from patent publication US20160194394A1 (GOVERNING COUNCIL OF THE UNIVERSITY OF TORONTO, published 2016).

B1: D11 (Fab)
light: DIQMTQSPSSLSASVGDRVTITCRASQSVSSAVAWYQQKPGKAPKLLIYSASSLYSGVPSRFSGSRSGTDFTLTISSLQPEDFATYYCQQYFPSGLITFGQGTKVEIKRTVAAPSVFIFPPSDSQLKSGTASVVCLLNNFYPREAKVQWKVDNALQSGNSQESVTEQDSKDSTYSLSSTLTLSKADYEKHKVYACEVTHQGLSSPVTKSFNRGECGGS
heavy: EVQLVESGGGLVQPGGSLRLSCAASGFNISYSYMHWVRQAPGKGLEWVASISPSSGYTSYADSVKGRFTISADTSKNTAYLQMNSLRAEDTAVYYCARSVSWWYSWWSWGMDYWGQGTLVTVSSASTKGPSVFPLAPSSKSTSGGTAALGCLVKDYFPEPVTVSWNSGALTSGVHTFPAVLQSSGLYSLSSVVTVPSSSLGTQTYICNVNHKPSNTKVDKKVEPKSC
notes: selection round 3; also called Fzd7-R3-D11
B2: E9 (Fab)
light: DIQMTQSPSSLSASVGDRVTITCRASQSVSSAVAWYQQKPGKAPKLLIYSASSLYSGVPSRFSGSRSGTDFTLTISSLQPEDFATYYCQQAVYHALITFGQGTKVEIKRTVAAPSVFIFPPSDSQLKSGTASVVCLLNNFYPREAKVQWKVDNALQSGNSQESVTEQDSKDSTYSLSSTLTLSKADYEKHKVYACEVTHQGLSSPVTKSFNRGECGGS
heavy: EVQLVESGGGLVQPGGSLRLSCAASGFNIYYSSMHWVRQAPGKGLEWVASISSYSSSTYYADSVKGRFTISADTSKNTAYLQMNSLRAEDTAVYYCARSAVVHYPAGYWVYWGWYAFDYWGQGTLVTVSSASTKGPSVFPLAPSSKSTSGGTAALGCLVKDYFPEPVTVSWNSGALTSGVHTFPAVLQSSGLYSLSSVVTVPSSSLGTQTYICNVNHKPSNTKVDKKVEPKSC
notes: selection round 3; also called Fzd7-R3-E9
B3: F3 (Fab)
light: DIQMTQSPSSLSASVGDRVTITCRASQSVSSAVAWYQQKPGKAPKLLIYSASSLYSGVPSRFSGSRSGTDFTLTISSLQPEDFATYYCQQGGHYWLITFGQGTKVEIKRTVAAPSVFIFPPSDSQLKSGTASVVCLLNNFYPREAKVQWKVDNALQSGNSQESVTEQDSKDSTYSLSSTLTLSKADYEKHKVYACEVTHQGLSSPVTKSFNRGECGGS
heavy: EVQLVESGGGLVQPGGSLRLSCAASGFNISYSSMHWVRQAPGKGLEWVASISSSYGYTSYADSVKGRFTISADTSKNTAYLQMNSLRAEDTAVYYCARSYYGYYVGYGYSSWSGSGMDYWGQGTLVTVSSASTKGPSVFPLAPSSKSTSGGTAALGCLVKDYFPEPVTVSWNSGALTSGVHTFPAVLQSSGLYSLSSVVTVPSSSLGTQTYICNVNHKPSNTKVDKKVEPKSC
notes: selection round 3; also called Fzd7-R3-F3
B4: G7 (Fab)
light: DIQMTQSPSSLSASVGDRVTITCRASQSVSSAVAWYQQKPGKAPKLLIYSASSLYSGVPSRFSGSRSGTDFTLTISSLQPEDFATYYCQQYGYWWVSLFTFGQGTKVEIKRTVAAPSVFIFPPSDSQLKSGTASVVCLLNNFYPREAKVQWKVDNALQSGNSQESVTEQDSKDSTYSLSSTLTLSKADYEKHKVYACEVTHQGLSSPVTKSFNRGECGGS
heavy: EVQLVESGGGLVQPGGSLRLSCAASGFNLYYYSIHWVRQAPGKGLEWVASIYSYSSYTYYADSVKGRFTISADTSKNTAYLQMNSLRAEDTAVYYCARWWPGHYSGYGSGALDYWGQGTLVTVSSASTKGPSVFPLAPSSKSTSGGTAALGCLVKDYFPEPVTVSWNSGALTSGVHTFPAVLQSSGLYSLSSVVTVPSSSLGTQTYICNVNHKPSNTKVDKKVEPKSC
notes: selection round 3; also called Fzd7-R3-G7
B5: C1 (Fab)
light: DIQMTQSPSSLSASVGDRVTITCRASQSVSSAVAWYQQKPGKAPKLLIYSASSLYSGVPSRFSGSRSGTDFTLTISSLQPEDFATYYCQQYGHYLITFGQGTKVEIKRTVAAPSVFIFPPSDSQLKSGTASVVCLLNNFYPREAKVQWKVDNALQSGNSQESVTEQDSKDSTYSLSSTLTLSKADYEKHKVYACEVTHQGLSSPVTKSFNRGECGGS
heavy: EVQLVESGGGLVQPGGSLRLSCAASGFNLYSYSMHWVRQAPGKGLEWVASISSYYGSTYYADSVKGRFTISADTSKNTAYLQMNSLRAEDTAVYYCARAHGSSPGWYYAPYAGGGLDYWGQGTLVTVSSASTKGPSVFPLAPSSKSTSGGTAALGCLVKDYFPEPVTVSWNSGALTSGVHTFPAVLQSSGLYSLSSVVTVPSSSLGTQTYICNVNHKPSNTKVDKKVEPKSC
notes: selection round 2; also called Fzd7-R2-C1
B6: B10 (Fab)
light: DIQMTQSPSSLSASVGDRVTITCRASQSVSSAVAWYQQKPGKAPKLLIYSASSLYSGVPSRFSGSRSGTDFTLTISSLQPEDFATYYCQQYWASLITFGQGTKVEIKRTVAAPSVFIFPPSDSQLKSGTASVVCLLNNFYPREAKVQWKVDNALQSGNSQESVTEQDSKDSTYSLSSTLTLSKADYEKHKVYACEVTHQGLSSPVTKSFNRGECGGS
heavy: EVQLVESGGGLVQPGGSLRLSCAASGFNISYYYIHWVRQAPGKGLEWVAYISPYYGSTYYADSVKGRFTISADTSKNTAYLQMNSLRAEDTAVYYCARSWSYSYYYSHPGWSPVWAMDYWGQGTLVTVSSASTKGPSVFPLAPSSKSTSGGTAALGCLVKDYFPEPVTVSWNSGALTSGVHTFPAVLQSSGLYSLSSVVTVPSSSLGTQTYICNVNHKPSNTKVDKKVEPKSC
notes: selection round 3; also called Fzd7-R3-B10
B7: B7 (Fab)
light: DIQMTQSPSSLSASVGDRVTITCRASQSVSSAVAWYQQKPGKAPKLLIYSASSLYSGVPSRFSGSRSGTDFTLTISSLQPEDFATYYCQQAYYPLFTFGQGTKVEIKRTVAAPSVFIFPPSDSQLKSGTASVVCLLNNFYPREAKVQWKVDNALQSGNSQESVTEQDSKDSTYSLSSTLTLSKADYEKHKVYACEVTHQGLSSPVTKSFNRGECGGS
heavy: EVQLVESGGGLVQPGGSLRLSCAASGFNISYSSMHWVRQAPGKGLEWVASIYPSYGYTSYADSVKGRFTISADTSKNTAYLQMNSLRAEDTAVYYCARVYWSSSYWAGGYWVGSAFDYWGQGTLVTVSSASTKGPSVFPLAPSSKSTSGGTAALGCLVKDYFPEPVTVSWNSGALTSGVHTFPAVLQSSGLYSLSSVVTVPSSSLGTQTYICNVNHKPSNTKVDKKVEPKSC
notes: selection round 3; also called Fzd7-R3-B7

Tests used:
[1] = biological target: T1, recombinant Frizzled receptor 7 (FZD7) cysteine-rich domain (CRD) fused to the Fc region of human IgG (human, UniProt O75084 33-185); test: ELISA, 1ug/ml (20nM) Fab [cont'd]
Protocol: (§1) FIG. 2B is a table depicting the binding of purified Fabs to purified FZD7-Fc measured by ELISA. Fabs purified from 25 ml bacterial cultures were assayed for binding to FZD7-Fc fusion protein (R&D systems) and Fc protein. ELISA plates (384 well) were coated with 2 ug/ml of protein in PBS overnight at four degrees. Wells were blocked with 0.5% BSA/PBS for 1 hour at room temperature, washed three times with 0.05% Tween20/PBS (wash buffer), and then primary dilutions of Fabs in 0.5% BSA/0.05% Tween20/PBS (dilution buffer) were added at indicated concentrations. Fabs were incubated for 1 hour at room temperature, wells were washed six times, and anti-FLAG-HRP (Sigma) was added at 1:5000 in dilution buffer. Secondary antibody was incubated for 45 minutes at room temperature, and wells were washed six times and developed with TMB substrate with an acid stop. The absorbance at 450 nm was read. n.t.=not tested.

[2] = biological target: T2, Fc control protein; test: ELISA, 1ug/ml (20nM) Fab [cont'd]
T2 construct: also called Fc protein; control Fc protein
Protocol: as §1

[3] = biological target: T1, recombinant Frizzled receptor 7 (FZD7) …; test: ELISA, 10ug/ml (200nM) Fab [cont'd]
Protocol: as §1

[4] = biological target: T2, Fc control protein; test: ELISA, 10ug/ml (200nM) Fab [cont'd]
Protocol: as §1

[5] = biological target: T3, FZD7 receptor expressed on cells (full-length) (UniProt O75084 33-574, limits assumed); test: flow cytometry, 200 nM Fab, MDA MB 231 [cont'd]
T3 construct: whole, on cells; MDA MB 231 cells may carry other Frizzled receptors too; also called full-length FZD7 receptor; endogenous receptor on MDA MB 231 cells
Protocol: (§2) FIG. 3 is a table depicting the binding of the purified Fabs to cells expressing FZD7 (flow cytometry). Small scale Fabs were assayed for binding to full-length FZD7 receptor to an over-expression line in MDA MB 231 cells. In parallel, Fabs were assayed for binding to endogenous receptor expressed on the MDA MB 231 cells. Cells were harvested using an EDTA solution, blocked in 2% FBS/PBS (stain buffer), and stained with 200 nM Fab for 30 min on ice. Cells were washed two times with stain buffer and incubated with anti-F(ab′)₂-APC secondary antibody (Jackson Immuno) at 1:1000 for 15 minutes on ice. All antibodies were diluted in stain buffer. Cells were washed three times with stain buffer and then fixed with 1% paraformaldehye for analysis by flow cytometry. […] The percent of the cell population within the positive gates is indicated.

[6] = biological target: T3, FZD7 receptor expressed on cells …; test: flow cytometry, 200 nM Fab, FZD7 over-expression line (MDA MB 231) [cont'd]
Protocol: as §2

Binder | OD 450 [1] | OD 450 [2] | OD 450 [3] | OD 450 [4] | % population within the positive gate [5] [%] | % population within the positive gate [6] [%]
B1 | 1.42 | 0.06 | 2.79 | 0.15 | 1.2 | 81
B2 | 3.09 | 0.07 | 3.2 | 0.1 | 96.6 | 87.1
B3 | 2.35 | 0.06 | 2.97 | 0.07 | 1 | 82.5
B4 | 1.9 | 0.06 | 2.98 | 0.13 | 15.3 | 84.2
B5 | 3.15 | 0.06 | 3.19 | 0.14 | 66.5 | 87.3
B6 | 3.22 | 0.06 | 3.24 | 0.06 | 98.2 | 93.7
B7 | 2.12 | 0.06 | 3.06 | 0.07 | 0.7 | 80.1
